In the RNAGym collection of RNA variant scans (doi:10.1073/pnas.2313332121):
This sample holds only a part of the variants without activity.

B1: TPR 5TU (parent)
chain: GGAUCUUCUCGAUCUAACAAAAAAGACAAAUCUGCCACAAAGCUUGAGAGCAUCUUCGGAUGCAGAGGCGGCAGCCUUCGGUGGCGCGAUAGCGCCAACGUUCUCAACUAUGACACGCAAAACGCGUGCUCCGUUGAAUGGAGUUUAUCAUG

Variants of: B1
Assay: polymerase ribozyme fitness, log enrichment relative to wild type (log ratio); higher = more active; in vitro selection for triplet polymerase activity
Procedure, shortened: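 Fitness is a logarithmic measure of how a genotype enriched relative to the wild type, with replicate averages weighted by inverse variance. The logarithm uses base 2, and enrichment came from Illumina sequencing of input and output libraries. Those libraries were PCR-built, transcribed mutants of each subunit of a heterodimeric triplet polymerase ribozyme, passed through one triplicate in vitro selection round that included frozen incubation at −7 °C, gel excision of extended constructs and streptavidin-bead capture. Genotypes were kept only if they had ≥10 input reads and ≥1 read per output.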

| Variant | polymerase ribozyme fitness (log ratio) |
| --- | --- |
| C18U C93U C99U A150G | -2.85 |
| A19C U61A C103A | ≤ -4.2 |
| A19C G48C C51A G86U G128U | ≤ -4.2 |
| A19G A22G U31G A41U U44A A60C G81A G83C G84A U146A | ≤ -4.2 |
| C18U C38G A40G U61A G81C C96A C116G A119U | ≤ -4.2 |
| A19C C96U A106G A120C | 0.311 |
| A19C A20U U61C C76A U82C A91U U130G U146C | ≤ -4.2 |
| C18U G83A | -0.637 |
| C18U G83C | -1.3 |
| A19C C57A C131A | -2.25 |
| C18U G140C | -4.17 |
| A19C A21C C35U G59U C75U | -1.16 |
| A19C C27U A29C A52C G86C A137G G143U | ≤ -4.2 |
| C18U A39G U53C | -3.19 |
| A19C G117C | 0.678 |
| C18U U33A A39U A52C C72U G94A C95U C132U | ≤ -4.2 |
| C18U A40C C93A | -2.24 |
| A19C C35U C95U | 0.438 |
| A19G A26U C85A A97C A119U C123U | ≤ -4.2 |
| A19C G62C C72A C87A C131U U135A | ≤ -4.2 |
| A19C G58C C95U G140U | -3.88 |
| C18U A41G C85A U134A | -3.02 |
| A19C A20C A40G U55C G71U G84A A138U U139A | ≤ -4.2 |
| A19C C129G U148G | ≤ -4.2 |

| Variant | polymerase ribozyme fitness (log ratio) |
| --- | --- |
| A19C U31C | 1.56 |
| C18U A142C | -0.999 |
| A19C A21G C57A G58U C72U C85U C103U U134C | -0.327 |
| C18U U61G A91C C93G C96U C99U A147U | ≤ -4.2 |
| A19C A41C U148C | -1.99 |
| A19C C54U | -0.474 |
| C18U A52U | -1.92 |
| A19C A39U U53G A89U U104G C108A G136A A138C U145A | ≤ -4.2 |
| A19C G58C C87A C95A A98G | ≤ -4.2 |
| A19C A22G U31G C38U A107U G117A | -4.16 |
| C18U C51U C96A G126C C132U | -2.04 |
| A19G A20G A60G C76A A89U C93A | ≤ -4.2 |
| C18U U56A C85A G124A U135G G136A | ≤ -4.2 |
| A19C C51U A52G G84U A89U G124U G141U | -1.23 |
| C18U A60G U82A G141C | -0.334 |
| A19C U55A A91G | -2.67 |
| C18U U53G C54A A91G A110G C114G | ≤ -4.2 |
| A19C A150G | -0.495 |
| A19C A150U | 2.88 |
| C18U C85U | -0.241 |
| C18U C85G | -2.3 |
| C18U U55A C57G A66U U82G G94C A113U | ≤ -4.2 |
| C18U G94A | -1.37 |
| C18U C38U A39C G92U C103U | ≤ -4.2 |

| Variant | polymerase ribozyme fitness (log ratio) |
| --- | --- |
| C18U A41C C72U C93G U104G | ≤ -4.2 |
| A19C U53A G92A | -3.8 |
| C18U A41G C51U A115C G140U | -3.82 |
| C18U C85G U145A | -1.19 |
| A19C G34A C57U G86C C96U A98U | -3.16 |
| A19G A23G G67C C87U | ≤ -4.2 |
| C18U C54U C93G A119C | ≤ -4.2 |
| C18U A40U G143C | -2.98 |
| A19C C38U C96U A142U | -0.812 |
| C18U C54A A64G G83C A119U A147C | ≤ -4.2 |
| A19C U56A G94A C99U U135A U148A U151G | ≤ -4.2 |
| A19C C54A U78G C96U G141C | ≤ -4.2 |
| A19C A24U C93U U135C | -2.84 |
| A19C U45A G67A | ≤ -4.2 |
| A19C C87U | -0.722 |
| C18U A91G | -3.63 |
| C18U A39C C57U G83A C95U U148C C149A | ≤ -4.2 |
| A19C G86C C99U | -2.28 |
| A19C U53A G58A | 0.679 |
| C18U C96U | -0.659 |
| C18U C36A | -4.01 |
| A19G A21C A30U C38G A41C G48A U77G C93G C114G | ≤ -4.2 |
| C18U C96G U127C G143A | -4.17 |
| C18U C132U U135A | -2.33 |

| Variant | polymerase ribozyme fitness (log ratio) |
| --- | --- |
| C18U C93U G133U | ≤ -4.2 |
| C18U A97G C131G | -3.22 |
| A19C A20U C85U G136A | -0.21 |
| A19C G83U C87U | -0.445 |
| A19C C27G G70A C76U G94U C103U A120U C129A U148C | ≤ -4.2 |
| C18U C93U | -1.73 |
| C18U C93G | -3.19 |
| A19C C93U | 0.111 |
| A19C C93G | -2.84 |
| C18U U56A G83A U102A U144A | -3.72 |
| A19C A60C U102G U109G U151G | ≤ -4.2 |
| A19C C35G U53A C57A G92A U101C | -4.13 |
| C18U C57G U61A C87U A89U C116U C118G A122G U139A | ≤ -4.2 |
| A19C A26C | -1.76 |
| A19C U44A | -3.87 |
| C18U U55A | -1.49 |
| A19C C72A A107U G143A | ≤ -4.2 |
| C18U A47G A52U G68U C79A C93U C99A G141C A142G G143U | ≤ -4.2 |
| C18U G42A A73U C95U A98U C103G | ≤ -4.2 |
| C18U C27U A28C G74U G100U U144G G152C | ≤ -4.2 |
| C18U C85U C105U | 0.286 |
| A19C G62C G84A A89G G117A | -2.57 |
| A19C C38A C57A G80U C95U C116G | -1.83 |
| C18U U31C U56G A138U G140A | -4 |

| Variant | polymerase ribozyme fitness (log ratio) |
| --- | --- |
| C18U G34U G70A C85U C87U A91C G117A | ≤ -4.2 |
| A19C C57U G86A | -0.316 |
| C18U A60G C76U C103G G112U | ≤ -4.2 |
| A19C C54A C96U A122G G133C | -2.39 |
| C18U C57U G86A | -1.67 |
| C18U C51U A89U C96A | -2.24 |
| C18U G50C G88C C99U | ≤ -4.2 |
| C18U C131A | -2.6 |
| C18U U31G A41G U56A C63U C95U C96G U144C | -2.53 |
| A19C A22U C35A A106G | -3.28 |
| C18U C87G | ≤ -4.2 |
| A19C A23G A24G U31A C35A A40U G48A C79A G140A | ≤ -4.2 |
| C18U G84A U102A C123G | -2.76 |
| A19C A66C G94A U134G | ≤ -4.2 |
| A19C U55A C123G C125A U148G | ≤ -4.2 |
| A19C A40U G46A | -0.204 |
| A19C C85U | -0.536 |
| A19C C54U G67U C85A | ≤ -4.2 |
| A19C U45A G59U U148A C149G | ≤ -4.2 |
| A19C C51A C75A C93A G117C | ≤ -4.2 |
| A19C A52G G92C C96A A147C | -3.53 |
| A19C A28C A73G C87U | ≤ -4.2 |
| A19G A23U C57G G84U C93G G94C A122U A142C | ≤ -4.2 |
| A19C A29U A39U A60U C76U C95U U144A | ≤ -4.2 |

| Variant | polymerase ribozyme fitness (log ratio) |
| --- | --- |
| A19G A26C U55G G83U U151C | ≤ -4.2 |
| A19G A26C U144G | -2.17 |
| A19C U56C C96U G133C | -2.22 |
| A19C A107G | -3.75 |
| C18U G65A | -1.77 |
| A19C A37U G70U U144C | ≤ -4.2 |
| C18U A40C A52G G86U U90C U135G | ≤ -4.2 |
| A19C C123G | 0.921 |
| A19C U56A | 0.406 |
| A19C G62U C95U C96A | -2.36 |
| C18U C51U U53A G83A | -3.04 |
| C18U A39G U53C C57G C75A U139G A150C | ≤ -4.2 |
| A19C C43U U61G A64C U77G C85U A110U C116G | ≤ -4.2 |
| C18U U53A C95U C99G | -3.76 |
| A19C G65C C69G C85U C87G U102G A121G G124A U139G | ≤ -4.2 |
| C18U U55G C75U G92C | -1.73 |
| A19C A39U G84C C93A U148A | ≤ -4.2 |
| A19C A52G G88A A106G U139A | ≤ -4.2 |
| A19C G70C C103G | ≤ -4.2 |
| A19C C57U G94U | -0.554 |
| C18U U53A G74C A107U U135C G140C | ≤ -4.2 |
| C18U G58C G86A U104C | -1.79 |
| A19C G46A G62A G94A C95A | ≤ -4.2 |
| C18U U53A C54U U56A G70A C85U C116U G141C | ≤ -4.2 |

| Variant | polymerase ribozyme fitness (log ratio) |
| --- | --- |
| A19C A24G C36U C57A U111G A121G | ≤ -4.2 |
| A19C U109G | -0.641 |
| A19C C27A A47C G58A G59A A91G C123A | ≤ -4.2 |
| C18U U55A C93A G128A G136A | ≤ -4.2 |
| A19C C57A A119G G128A | -4.12 |
| C18U U31A A60G G84C A89C C105U | -2.16 |
| C18U U90G | ≤ -4.2 |
| A19C A24G C32U C38U G59A C85A G133U U145C | ≤ -4.2 |
| A19C C79U A98U | -1.81 |
| A19C A22U G42U C75G C76A G94A A110U G133U G143U U146G | ≤ -4.2 |
| C18U G80U U148C | -3.99 |
| C18U C38U U55C A97U A120C | -1.43 |
| A19C A41C G48C C87U A91C A115C A122U G136C U145A | ≤ -4.2 |
| A19C A29C U33G C87G C108U U135A U148A | ≤ -4.2 |
| C18U C38G A40G U61A G81C C96A U146C | ≤ -4.2 |
| A19C C51U A142C | -0.768 |
| A19C U31A C38A G80A A98U | -0.863 |
| A19C C87U A97G A137U A142C | -4.12 |
| A19C C43U C51G G71A C87G C105U C108U G141C | ≤ -4.2 |
| C18U A40C C57A G126U | -0.291 |
| A19C A21U A40C A60C C96G A110G G136U | ≤ -4.2 |
| A19C A24G G94U C95G | ≤ -4.2 |
| C18U U55A G81C C93U C105U C118G | -1.85 |
